Several values for one entry are separate records, joined by “and”; a condition that tells them apart may be missing. Equal entries are not always repeated.
Molecular target: TACE expressed on resting and LPS-stimulated THP-1 cells, P78536
Assay: cell-based or functional assay

Chain of TACE expressed on resting and LPS-stimulated THP-1 cells, P78536 (P78536 215-824 limits assumed): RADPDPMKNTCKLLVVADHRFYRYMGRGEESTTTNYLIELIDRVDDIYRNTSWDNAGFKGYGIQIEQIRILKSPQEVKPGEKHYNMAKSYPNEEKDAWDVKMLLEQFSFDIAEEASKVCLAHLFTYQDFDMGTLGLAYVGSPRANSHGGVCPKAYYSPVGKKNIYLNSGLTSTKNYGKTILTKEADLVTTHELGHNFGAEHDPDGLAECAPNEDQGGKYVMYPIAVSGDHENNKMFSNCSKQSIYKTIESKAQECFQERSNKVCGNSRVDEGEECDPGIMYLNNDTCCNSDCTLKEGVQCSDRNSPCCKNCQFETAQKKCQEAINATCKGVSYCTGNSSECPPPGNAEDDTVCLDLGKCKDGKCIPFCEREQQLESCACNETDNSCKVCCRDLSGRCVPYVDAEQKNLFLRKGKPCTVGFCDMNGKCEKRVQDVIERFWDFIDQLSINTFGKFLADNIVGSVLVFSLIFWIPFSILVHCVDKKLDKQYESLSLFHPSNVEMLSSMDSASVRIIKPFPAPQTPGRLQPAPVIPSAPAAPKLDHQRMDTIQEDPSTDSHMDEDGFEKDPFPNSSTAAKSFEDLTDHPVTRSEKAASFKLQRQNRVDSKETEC

GFCRCLCRRGVCRCICTR (modifications not checked) [Rhesus θ-defensin-1 (RTD-1)] was tested, and the IC50, inhibition of TACE in cell-based assay on THP-1 cells was 15 µg/ml and 7.4 µM.
